In IntAct's records for PubMed 31515488:

B1: Aflatoxin B1 aldehyde reductase member 2 (Homo sapiens), O43488 (parent)
chain: MLSAASRVVSRAAVHCALRSPPPEARALAMSRPPPPRVASVLGTMEMGRRMDAPASAAAVRAFLERGHTELDTAFMYSDGQSETILGGLGLGLGGGDCRVKIATKANPWDGKSLKPDSVRSQLETSLKRLQCPQVDLFYLHAPDHGTPVEETLHACQRLHQEGKFVELGLSNYASWEVAEICTLCKSNGWILPTVYQGMYNATTRQVETELFPCLRHFGLRFYAYNPLAGGLLTGKYKYEDKDGKQPVGRFFGNSWAETYRNRFWKEHHFEAIALVEKALQAAYGASAPSVTSAALRWMYHHSQLQGAHGDAVILGMSSLEQLEQNLAATEEGPLEPAVVDAFNQAWHLVAHECPNYFR
B2: Cysteine-rich C-terminal protein 1 (Homo sapiens), Q9UGL9 (parent)
chain: MSSQQSAVSAKGFSKGSSQGPAPCPAPAPTPAPASSSSCCGSGRGCCGDSGCCGSSSTSCCCFPRRRRRQRSSGCCCCGGGSQRSQRSNNRSSGCCSGC
B3: Centrin-1 (Homo sapiens), Q12798 (parent)
chain: MASGFKKPSAASTGQKRKVAPKPELTEDQKQEVREAFDLFDVDGSGTIDAKELKVAMRALGFEPRKEEMKKMISEVDREGTGKISFNDFLAVMTQKMSEKDTKEEILKAFRLFDDDETGKISFKNLKRVANELGENLTDEELQEMIDEADRDGDGEVNEEEFLRIMKKTSLY
partner: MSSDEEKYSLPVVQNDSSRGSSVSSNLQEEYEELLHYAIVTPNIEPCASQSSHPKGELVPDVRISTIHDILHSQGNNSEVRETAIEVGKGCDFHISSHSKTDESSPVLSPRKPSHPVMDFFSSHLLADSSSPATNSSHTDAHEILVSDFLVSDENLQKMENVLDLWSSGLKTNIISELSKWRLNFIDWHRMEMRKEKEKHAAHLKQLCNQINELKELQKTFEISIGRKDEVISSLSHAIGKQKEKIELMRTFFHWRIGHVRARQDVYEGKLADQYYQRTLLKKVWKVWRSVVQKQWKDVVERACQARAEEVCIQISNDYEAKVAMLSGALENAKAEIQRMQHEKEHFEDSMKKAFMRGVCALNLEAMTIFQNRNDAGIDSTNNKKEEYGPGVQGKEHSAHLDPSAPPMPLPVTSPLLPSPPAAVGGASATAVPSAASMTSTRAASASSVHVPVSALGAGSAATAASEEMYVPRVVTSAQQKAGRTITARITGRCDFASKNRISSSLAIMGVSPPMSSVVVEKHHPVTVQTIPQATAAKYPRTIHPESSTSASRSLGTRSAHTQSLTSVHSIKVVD
B4: Protein BEX5 (Homo sapiens), Q5H9J7 (parent)
chain: MENVPKENKVVEKAPVQNEAPALGGGEYQEPGGNVKGVWAPPAPGFGEDVPNRLVDNIDMIDGDGDDMERFMEEMRELRRKIRELQLRYSLRILIGDPPHHDHHDEFCLMP
partner: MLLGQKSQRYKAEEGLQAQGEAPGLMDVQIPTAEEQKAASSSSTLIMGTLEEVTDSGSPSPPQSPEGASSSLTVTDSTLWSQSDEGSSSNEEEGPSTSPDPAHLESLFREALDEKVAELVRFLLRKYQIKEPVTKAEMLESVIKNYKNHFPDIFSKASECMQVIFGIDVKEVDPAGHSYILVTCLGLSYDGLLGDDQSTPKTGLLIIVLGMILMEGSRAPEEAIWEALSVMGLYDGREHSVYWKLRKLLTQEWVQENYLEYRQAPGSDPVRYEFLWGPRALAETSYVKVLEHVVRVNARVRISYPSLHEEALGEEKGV
B5: Nuclear protein AMMECR1 (Homo sapiens), Q9Y4X0 (parent)
chain: MAAGCCGVKKQKLSSSPPSGSGGGGGASSSSHCSGESQCRAGELGLGGAGTRLNGLGGLTGGGSGSGCTLSPPQGCGGGGGGIALSPPPSCGVGTLLSTPAAATSSSPSSSSAASSSSPGSRKMVVSAEMCCFCFDVLYCHLYGYQQPRTPRFTNEPYPLFVTWKIGRDKRLRGCIGTFSAMNLHSGLREYTLTSALKDSRFPPMTRDELPRLFCSVSLLTNFEDVCDYLDWEVGVHGIRIEFINEKGSKRTATYLPEVAKEQGWDHIQTIDSLLRKGGYKAPITNEFRKTIKLTRYRSEKMTLSYAEYLAHRQHHHFQNGIGHPLPPYNHYS
partner: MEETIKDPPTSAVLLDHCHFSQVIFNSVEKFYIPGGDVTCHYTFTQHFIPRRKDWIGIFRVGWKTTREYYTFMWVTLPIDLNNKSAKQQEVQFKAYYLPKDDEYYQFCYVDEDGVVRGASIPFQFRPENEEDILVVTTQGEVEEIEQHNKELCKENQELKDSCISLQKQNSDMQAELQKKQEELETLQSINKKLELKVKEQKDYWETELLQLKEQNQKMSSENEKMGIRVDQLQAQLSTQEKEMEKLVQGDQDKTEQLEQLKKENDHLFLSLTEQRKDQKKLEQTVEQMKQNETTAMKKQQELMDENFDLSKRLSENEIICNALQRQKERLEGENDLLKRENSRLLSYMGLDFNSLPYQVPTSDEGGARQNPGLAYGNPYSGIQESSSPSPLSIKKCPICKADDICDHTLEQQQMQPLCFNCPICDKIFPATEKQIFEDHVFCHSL

Variants of: B1
Conditions: with ark73_human AKR7A3, O95154
Chain of ark73_human AKR7A3, O95154 (O95154 whole entry): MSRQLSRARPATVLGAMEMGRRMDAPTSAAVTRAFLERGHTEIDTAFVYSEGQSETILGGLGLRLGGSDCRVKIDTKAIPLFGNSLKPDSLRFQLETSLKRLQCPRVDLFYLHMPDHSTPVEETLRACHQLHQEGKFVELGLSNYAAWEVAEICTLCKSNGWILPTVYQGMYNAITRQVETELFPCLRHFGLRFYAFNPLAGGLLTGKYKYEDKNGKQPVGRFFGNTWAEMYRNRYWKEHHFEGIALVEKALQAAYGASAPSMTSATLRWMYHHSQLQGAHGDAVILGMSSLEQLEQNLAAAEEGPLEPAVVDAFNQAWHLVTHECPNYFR
For A142T, the “effect of a mutation on the interaction” value was “disrupting interaction strength”.

Variants of: B1
Conditions: with cep70_human CEP70, Q8NHQ1
Chain of cep70_human CEP70, Q8NHQ1 (Q8NHQ1 whole entry): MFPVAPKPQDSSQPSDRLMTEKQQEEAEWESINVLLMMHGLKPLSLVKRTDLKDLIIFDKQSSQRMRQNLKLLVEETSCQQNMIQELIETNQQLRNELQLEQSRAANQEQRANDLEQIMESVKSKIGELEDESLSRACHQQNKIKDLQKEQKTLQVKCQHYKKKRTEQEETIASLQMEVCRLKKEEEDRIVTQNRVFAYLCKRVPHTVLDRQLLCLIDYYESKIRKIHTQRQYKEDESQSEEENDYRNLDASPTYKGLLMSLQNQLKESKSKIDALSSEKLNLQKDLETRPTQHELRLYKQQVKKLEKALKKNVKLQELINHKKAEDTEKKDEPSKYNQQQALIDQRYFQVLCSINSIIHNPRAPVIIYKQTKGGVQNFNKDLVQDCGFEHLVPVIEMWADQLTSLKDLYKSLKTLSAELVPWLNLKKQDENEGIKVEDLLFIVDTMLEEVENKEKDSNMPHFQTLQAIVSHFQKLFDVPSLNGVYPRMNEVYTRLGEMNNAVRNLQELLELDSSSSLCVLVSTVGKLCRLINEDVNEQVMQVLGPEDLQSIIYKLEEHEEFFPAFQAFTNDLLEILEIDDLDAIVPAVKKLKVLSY
In the case of A142T, the “effect of a mutation on the interaction” value is reported as “disrupting interaction strength”.

Variants of: B2
Conditions: with nt2na_human NOTCH2NLA
With G20S the “effect of a mutation on the interaction” value was “with no effect”.

Variants of: B3
Conditions: with poc5_human POC5, Q8NA72
For M72T, the “effect of a mutation on the interaction” value was “with no effect”.

Variants of: B4
Conditions: with maga8_human MAGEA8, P43361
In the case of E74D, the “effect of a mutation on the interaction” value is reported as “with no effect”.

Variants of: B5
Conditions: with caco2_human CALCOCO2, Q13137
With R207G the “effect of a mutation on the interaction” value was “disrupting interaction strength”.
